{"source": "the PETadex activity labels", "proteins": {"B1": {"name": "unnamed (protein)", "chain": "MTHQIVTTQYGKIKGTTENGVHKWKGIPYAKPPVGQWRFKAPEPPEVWEDVLDATAYGPVCPQPSDLLSLSYAELPRQSEDCLYVNVFAPDTPSQNLPVMVWIHGGAFYLGAGSEPLYDGSKLAAQGEVIVVTLNYRLGPFGFLHMSSFDEAYSDNLGLLDQAAALKWVRENISAFGGDPNNVTVFGESAGGMSIAALLAMPAAKGLFQKAIMESGASRTMTKEQAASTAAAFLQVLGINESQMDRLHTVAAEDLLKAADQLRIAEKENIFQLFFQPALDPKTLPAEPEKAIAEGAASGIPLLIGTTRDEGYLFFTPDSDVHSQETLDAALEYLLGKPLAEKAADLYPRSLESQIHMMTDLLFWRPAVAYASAQSHYAPVWMYRFDWHPEKPPYNKAFHALELPFVFGNLDGLERMAKAEVTDEVKQLSHSIQTAWITFAKTGNPSTEAVNWPAYQEETRETLILDSKITIENDPESEKRQKLFPSKGEAALEHHHHHH"}, "B2": {"name": "unnamed (protein)", "chain": "MESQVRGGTRWKRFAVVMVPSVAATAAIGVALAQGALAASFSVSGQSFKVTAQELNGTGFSQYGAIDQGYTLSGEKTAHPVAVSVFDTARIQKMCQSVVTPNIPLLGSVSLTLTAGDSADPEKQVNAKNLYIDVEDLGADAEFTNIDIGVAGKDISQGPGMKAGEVQKKQANPYGFAQQAEKAKLTDVKQTAWATTAGTFKLPGLKMKLQTGTHECY"}, "B3": {"name": "unnamed (protein)", "chain": "MTHQIVTTQYGKIKGTTENGVHKWKGIPYAKPPVGQWRFKAPEPPEVWEDVLDATAYGPVCPQPSDLLSLSYAELPRQSEDCLYVNVFAPDTPSQNLPVMVWIHGGAFYLGAGSEPLYDGSKLAAQGEVIVVTLNYRLGPFGFLHMSSFDEAYSDNLGLLDQAAALKWVRENISAFGGDPNNVTVFGESAGGMSIAALLAMPAAKGLFQKAIMESGASRTMTKEQAASTAAAFLQVLGINESQMDRLHTVAAEDLLKAADQLRIAEKENIFQLFFQPALDPKTLPAEPEKAIAEGAASGIPLLIGTTRDEGYLFFTPDSDVHSQETLDAALEYLLGKPLAEKAADLYPRSLESQIHMMTDLLFWRPAVAYASAQSHYAPVWMYRFDWHPEKPPYNKAFHALELPFVFGNAEVTDEVKQLSHSIQTAWITFAKTGNPSTEAVNWPAYQEETRETLILDSKITIENDPESEKRQKLFPSKGEAALEHHHHHH"}, "B4": {"name": "unnamed (protein)", "chain": "MAVMTPRRERSSLLSRALQVTAAAATALVTAVSLAAPAHAANPYERGPNPTDALLEASSGPFSVSEENVSRLSASGFGGGTIYYPRENNTYGAVAISPGYTGTEASIAWLGERIASHGFVVITIDTITTLDQPDSRAEQLNAALNHMINRASSTVRSRIDSSRLAVMGHSMGGGGTLRLASQRPDLKAAIPLTPWHLNKNWSSVTVPTLIIGADLDTIAPVATHAKPFYNSLPSSISKAYLELDGATHFAPNIPNKIIGKYSVAWLKRFVDNDTRYTQFLCPGPRDGLFGEVEEYRSTCPF"}, "B5": {"name": "unnamed (protein)", "chain": "MNFPRASRLMQAAVLGGLMAVSAAATAQTNPYARGPNPTAASLEASAGPFTVRSFTVSRPSGYGAGTVYYPTNAGGTVGAIAIVPGYTARQSSIKWWGPRLASHGFVVITIDTNSTLDQPSSRSSQQMAALRQVASLNGTSSSPIYGKVDTARMGVMGWSMGGGGSLISAANNPSLKAAAPQAPWDSSTNFSSVTVPTLIFACENDSIAPVNSSALPIYDSMSRNAKQFLEINGGSHSCANSGNSNQALIGKKGVAWMKRFMDNDTRYSTFACENPNSTRVSDFRTANCS"}, "B6": {"name": "unnamed (protein)", "chain": "MKEGKHFVLVHGACHGGWSWYKLKPLLEAAGHKVTALDLAASGTDLRKIEELRTLYDYTLPLMELMESLSADEKVILVGHSLGGMNLGLAMEKYPQKIYAAVFLAAFMPDSVHNSSFVLEQYNERTPAENWLDTQFLPYGSPEEPLTSMFFGPKFLAHKLYQLCSPEDLALASSLVRPSSLFMEDLSKAKYFTDERFGSVKRVYIVCTEDKGIPEEFQRWQIDNIGVTEAIEIKGADHMAMLCEPQKLCASLLEIAHKYN"}, "B7": {"name": "unnamed (protein)", "chain": "MKEGKHFVLVHTACHGGWSWYKLKPLLEAAGHKVTALDLAASGTDLRKIEELRTLYDYTLPLMELMESLSADEKVILVGHSLGGMNLGLAMEKYPQKIYAAVFLAAFMPDSVHNSSFVLEQYNERTPAENWLDTQFLPYGSPEEPLTSMFFGPKFLAHKLYQLCSPEDLALASSLVRPSSLFMEDLSKAKYFTDERFGSVKRVYIVCTEDKGIPEEFQRWQIDNIGVTEAIEIKGADHMAMLCEPQKLCASLLEIAHKYN"}, "B8": {"name": "unnamed (protein)", "chain": "MKEGKHFVLVHTACHGGWSWYKLKPLLEAAGHKVTALDLAASGTDLRKIEELRTLYDYTLPLMELMESLSADEKVILVGHSLGGMNLGLAMEKYPQKIYAAVFLAAFMPDSVHNSSFVLEQYNERTPAENWLDTQFLPYGSPEEPLTSMFFGPKFLAHKLYQLCSPEDLALASSLVRPSSLFMEDLSKAKYFTDERFGSVKRVYIVCTEDKGIPEEFQRWQIDNIGVTEAIEIKGADHKAMLCEPQKLCASLLEIAHKYN"}, "B9": {"name": "unnamed (protein)", "chain": "MAKEILVAYGVDIDAVAGWLGSYGGEDSPDDISRGLFAGEVGIPRLLKLFKKYHLPATWFSPGHSIETFSEQMKMIVDAGHEVGAHGYSHENPIAMTAKQEEDVLLKSVELIKDLTGKAPTGYVAPWWEFSNITNELLLKHGFKYDHSLMHNDFTPYYVRVGDSWSKIDYSLEAKDWMKPLIRGVETDLVEIPANWYLDDLPPMMFIKKSPNSFGFVSPHDIGQMWIDQFDWVYREMDYAVFSMTIHPDVSARPQVLLMHEKIIEHINKHEGVRWVTFNEIADDFLKRNPRKK"}, "B10": {"name": "unnamed (protein)", "chain": "MFGKLPFARASLAVGALLLSAAAVAQTNPYQRGPDPTVSSLEATRGPFSTSSFTVSRPSGYGAGTVYYPTNAGGKVGAIAVVPGYTARQSSINWWGPRLASHGFVVITIDTNSTLDQPSSRSSQQMAALRQVVSLAGTSSSPIYNKVDTARLGVMGWSMGGGGSLISAKNNPSLRAAAPQAPWAQESFSSVTVPTLIVSCENDSIAPNSSHSFPFYNQMTRNKKANLVINGGSHSCANSGNSDAGLIGKYGVAWMKRFMDDDTRYSKFLCGAEHQADLSKRAVEAYKENCPY"}, "B11": {"name": "unnamed (protein)", "chain": "MERTVVETRYGRLRGGTNESVFVWKGIPYAKAPVGERRFLPPEPPDAWDGVREAAAFGPVVMQPSDPIFSGLLGRMSEAPSEDGLYLNIWSPAADGKKRPVLFWIHGGAFLFGSGSSPWYDGTAFAKHGDVVVVTINYRMNVFGFLHLGDLFGEAYAQAGNLGILDQVAALRWVKENIEAFGGDPDNITIFGESAGAASVGVLLSLSEASGLFRRAILQSGSGALLLRSPKTAMAMTERILERAGIRPGDRGRLLSIPSEELLRSALSLGPGIMYGPVVDGRVLRRHPIEALCDGAASGIPILIGVTKDEYNLFTLTDPSWTKLGEKELLDRINREVGPVPEAAIRYYAETAEPSAPDWQTWLRIMTYRVFVEGMLRTADAQAAHGADVYMYRFDYETPVFGGQLKACHALELPFVFHNLHQPGVANFVGNRPEREAIANEMHYAWLSFARTGDPNGDHLPEAWPAYTSERKAAFVFSAASHVEDDPFGRERAAWMTRT"}, "B12": {"name": "unnamed (protein)", "chain": "MFNQIGKKSALSLMAAGSLMFSATALAIGGGGSGGGNNGGGGGCEADCGYERGPDPSVSLLEASTGPFSVRTSNVSSSVRGFGGGTIHYPTNTTGTMAAIVVIPGFVSPESSIAWWGPKLASHGFVVMTIGTNSGFDQPASRASQLNNALDYLIEQNGSSRSPINGMIDTDRLGVMGWSMGGGGTLRVATEGRVSAAIPLAPWDSSSSQFRSIDTPTLIFACENDSTAPVRSHADPFYDAIPDSTAKAFVELDGGGHTCANGSSGFGGSYNDVLSRLGVSWMKLHLDKDQRYNQFVCGPNHESDRSISEYRGTCPY"}}}
{"substrate": "BHET", "conditions": "pH 7.5; 30 °C", "units": {"Km": "µM", "kcat": "s⁻¹", "kcat/Km": "M⁻¹ s⁻¹"}}
{"protein": "B1", "Km": 100, "kcat": 37.7, "kcat/Km": 377000}
{"protein": "B3", "Km": 80, "kcat": 102, "kcat/Km": "1.28e+06"}
{"substrate": "p-NP-C12", "conditions": "pH 7; 37 °C", "units": {"Km": "µM", "kcat": "s⁻¹", "kcat/Km": "M⁻¹ s⁻¹"}}
{"protein": "B2", "Km": 4300, "kcat": 1.4, "kcat/Km": 326}
{"substrate": "p-NP-C14", "conditions": "pH 7; 37 °C", "units": {"Km": "µM", "kcat": "s⁻¹", "kcat/Km": "M⁻¹ s⁻¹"}}
{"protein": "B2", "Km": 1100, "kcat": 4.5, "kcat/Km": 4090}
{"substrate": "p-NP-C16", "conditions": "pH 7; 37 °C", "units": {"Km": "µM", "kcat": "s⁻¹", "kcat/Km": "M⁻¹ s⁻¹"}}
{"protein": "B2", "Km": 2100, "kcat": 2.9, "kcat/Km": 1380}
{"substrate": "BHET", "conditions": "pH 8.5; 60 °C", "units": {"Km": "µM", "kcat": "s⁻¹", "kcat/Km": "M⁻¹ s⁻¹"}}
{"protein": "B4", "Km": 39700, "kcat": 26.8, "kcat/Km": 674}
{"substrate": "MHET", "conditions": "pH 8.5; 60 °C", "units": {"Km": "µM", "kcat": "s⁻¹", "kcat/Km": "M⁻¹ s⁻¹"}}
{"protein": "B4", "Km": 7330, "kcat": 0.31, "kcat/Km": 42.3}
{"substrate": "p-NP-C4", "conditions": "pH 8; 20 °C", "units": {"Km": "µM", "kcat": "s⁻¹", "kcat/Km": "M⁻¹ s⁻¹"}}
{"protein": "B4", "Km": 312, "kcat": 304, "kcat/Km": 973000}
{"substrate": "p-NP-C4", "conditions": "pH 8; 60 °C", "units": {"Km": "µM", "kcat": "s⁻¹", "kcat/Km": "M⁻¹ s⁻¹"}}
{"protein": "B4", "Km": 505, "kcat": 742, "kcat/Km": "1.47e+06"}
{"substrate": "p-NP-C2", "conditions": "pH 7; 30 °C; part of the chain shown", "units": {"Km": "µM", "kcat": "s⁻¹", "kcat/Km": "M⁻¹ s⁻¹"}}
{"protein": "B5", "Km": 4600, "kcat": 27, "kcat/Km": 5870}
{"substrate": "p-NP-C2", "conditions": "pH 7.2; 25 °C", "units": {"Km": "µM", "kcat": "s⁻¹", "kcat/Km": "M⁻¹ s⁻¹"}}
{"protein": "B6", "Km": 1400, "kcat": 2, "kcat/Km": 1430}
{"protein": "B7", "Km": 8700, "kcat": 0.0283, "kcat/Km": 3.26}
{"protein": "B8", "Km": 7600, "kcat": 0.025, "kcat/Km": 3.29}
{"substrate": "p-NP-C2", "conditions": "pH 6; 30 °C", "units": {"Km": "µM", "kcat": "s⁻¹", "kcat/Km": "M⁻¹ s⁻¹"}}
{"protein": "B9", "Km": 180, "kcat": 20.2, "kcat/Km": 112000}
{"substrate": "BHET", "conditions": "48.5 °C", "units": {"kcat": "s⁻¹"}}
{"protein": "B10", "kcat": 28.5}
{"substrate": "p-NP-C12", "conditions": "pH 7.4; 60 °C", "units": {"Km": "µM", "kcat": "s⁻¹", "kcat/Km": "M⁻¹ s⁻¹"}}
{"protein": "B11", "Km": 22800, "kcat": 0.993, "kcat/Km": 43.7}
{"substrate": "p-NP-C2", "conditions": "20 °C", "units": {"Km": "µM", "kcat": "s⁻¹", "kcat/Km": "M⁻¹ s⁻¹"}}
{"protein": "B12", "Km": 2100, "kcat": 4.74, "kcat/Km": 2260}
